The results in this text go back to patent US20090074771A1 (MacroGenics, published 2009).

Test [1] has as its target human FcγRIIB (CD32B) on cells (human) (UniProt P31994). The test can be described thus: double-staining FACS on CHO cells with full-length FcγRIIB, isotype control pre-incubation.
In test [2] the target is T1, CD32A (H131 form) on THP-1 monocytic cells (human, UniProt P12318 34-317).
T1 construct: whole, on cells
T1 sequence (looked up): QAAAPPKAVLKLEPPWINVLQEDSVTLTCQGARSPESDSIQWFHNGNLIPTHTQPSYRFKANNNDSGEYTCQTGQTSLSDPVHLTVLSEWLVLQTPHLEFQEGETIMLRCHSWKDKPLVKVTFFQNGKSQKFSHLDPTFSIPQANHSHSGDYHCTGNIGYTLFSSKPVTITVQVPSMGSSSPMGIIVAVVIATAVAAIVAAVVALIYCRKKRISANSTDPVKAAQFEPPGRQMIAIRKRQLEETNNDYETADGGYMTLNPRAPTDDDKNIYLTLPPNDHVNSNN
The test can be described thus: FACS on THP-1 cells. As for the experimental part: Recognition of CD32B on the cell surface. Experiments were carried out to test the ability of the antibodies to discriminate CD32B from CD32A expressed on cells and to recognize the native CD32B molecule on human cell lines.

Test [3] addresses T2, soluble extracellular domain of human FcγRIIB (CD32B), produced in mammalian (293/293H) cells (human, UniProt P31994 43-217).
T2 construct: extracellular domain; also called mammalian FcγRIIB; soluble monomeric human CD32B
T2 sequence (looked up): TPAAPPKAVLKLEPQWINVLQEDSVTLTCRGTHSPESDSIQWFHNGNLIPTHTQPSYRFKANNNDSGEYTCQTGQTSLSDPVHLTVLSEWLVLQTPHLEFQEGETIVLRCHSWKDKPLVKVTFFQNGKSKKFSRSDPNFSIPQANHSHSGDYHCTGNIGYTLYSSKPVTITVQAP
The test can be described thus: direct ELISA, receptor-coated plate. In general terms: In an ELISA, binding on a coated surface is turned into a signal by an enzyme label.

The target of test [4] is T3, soluble extracellular domain of human CD32A-R131 (human, UniProt P12318 34-217).
T3 construct: extracellular domain; Monomeric analyte in BIAcore, 100 nM
T3 sequence (looked up): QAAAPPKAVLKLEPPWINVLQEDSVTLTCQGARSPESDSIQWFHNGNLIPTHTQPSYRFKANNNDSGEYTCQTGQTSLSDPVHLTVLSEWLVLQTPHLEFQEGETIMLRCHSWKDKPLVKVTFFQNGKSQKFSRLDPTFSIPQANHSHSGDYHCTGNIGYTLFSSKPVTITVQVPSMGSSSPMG
The test can be described thus: SPR (BIAcore), antibody captured, soluble monomeric receptor injected. A general note: SPR reads the build-up and loss of mass on a sensor chip optically.
Experimental: The capturing antibody, a F(ab′)2 fragment of a goat anti-mouse Fc-specific antibody (Jackson Immunoresearch, West Grove, Pa.), was immobilized on the CM-5 sensor chip according to the procedure recommended by the manufacturer. Briefly, the carboxyl groups on the sensor chip surface were activated with an injection of a solution containing 0.2M N-ethyl-N-(3diethylamino-propyl) carbodiimide and 0.05M N-hydroxy-succinimide. The F(ab′)2 fragment was then injected over the activated CM-5 surface in 10 mM sodium-acetate, pH 5.0, at flow rate 5 μl/min for 420 sec, followed by 1 M ethanolamine for deactivation. Binding experiments were performed in HBS-P buffer containing 110 mM HEPES, pH 7.4, 150 mM NaCl, and 0.005% P20 surfactant. Each monoclonal antibody was captured on the CM-5 chip by injecting a 300 nM-antibody solution at flow rate 5 μl/min for 240 sec, followed by an injection of the monomeric soluble receptors at concentration of 100 nM and a flow rate 50 μl/min for 120 sec with dissociation time 180 sec. Regeneration of the F(ab′)2 GAM surface was performed by pulse injection of 50 mM glycine, pH 1.5 and 50 mM NaOH. […] Resulted curves were analyzed by separate ka/kd fit. KD values were calculated as average of four curves at two different concentrations. […]

Test [5] concerns the target T4, FcγRIIIA coated on ELISA plates (UniProt P08637 17-208, limits assumed).
T4 construct: 100 ng/well on the plate
The test can be described thus: direct ELISA, receptor-coated plate.

T4 sequence (P08637 17-208 limits assumed): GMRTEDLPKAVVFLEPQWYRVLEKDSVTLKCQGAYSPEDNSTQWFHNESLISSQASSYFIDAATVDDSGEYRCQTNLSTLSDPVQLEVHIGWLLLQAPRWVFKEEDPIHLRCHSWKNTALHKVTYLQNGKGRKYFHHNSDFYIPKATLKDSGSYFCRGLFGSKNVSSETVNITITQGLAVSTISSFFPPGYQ

In test [1], aggregated human IgG (ligand) returned a percent of cells stained of 60%.

B1: mouse monoclonal antibody produced by clone 2B6 (antibody, V domains shown)
VH: QVQLQQPVTELVRPGASVMLSCKASDYPFTNYWIHWVKQRPGQGLEWIGVIDPSDTYPNYNKKFKGKATLTVVVSSSTAYMQLSSLTSDDSAVYYCARNGDSDYYSGMDYWGQGTSVTVSS
VL: DILLTQSPAILSVSPGERVSFSCRTSQSIGTNIHWYQQRTNGFPRLLIKNVSESISGIPSRFSGSGSGTDFILSINSVESEDIADYYCQQSNTWPFTFGGGTKLEIK
notes: also called 2B6 antibody; m2B6
Regarding B1, the binding result in test [2] was “no binding”; in test [4], “no binding (tested: 100 nM soluble receptor)”. Also, the “fold binding relative to AT10, FL18.26 and IV.3” value in test [3] is at most 4.5 fold.

B2: mouse monoclonal antibody produced by clone 3H7 (antibody, V domains shown)
VH: EVKFEESGGGLVQPGGSMKLSCAASGFTFSDAWMDWVRQGPEKGLEWVAEIRNKANNLATYYAESVKGRFTIPRDDSKSSVYLHMNSLRAEDTGIYYCYSPFAYWGQGTLVTVSA
VL: DIQMTQSPSSLSASLGERVSLTCRASQEISGYLSWLQQKPDGTIRRLIYAASTLDSGVPKRFSGSWSGSDYSLTISSLESEDFADYYCLQYVSYPYTFGGGTKLEIK
notes: also called 3H7 antibody; 3H7 supernatant
With B2, the binding result in test [5] is reported as “no binding”.
